T1: EpEX-His (Homo sapiens, UniProt P16422)
T1 construct: the soluble extracellular domain of EpCAM (EpEX); His; made in house; host or cells: Expi293
T1 sequence (P16422 24-265 limits assumed): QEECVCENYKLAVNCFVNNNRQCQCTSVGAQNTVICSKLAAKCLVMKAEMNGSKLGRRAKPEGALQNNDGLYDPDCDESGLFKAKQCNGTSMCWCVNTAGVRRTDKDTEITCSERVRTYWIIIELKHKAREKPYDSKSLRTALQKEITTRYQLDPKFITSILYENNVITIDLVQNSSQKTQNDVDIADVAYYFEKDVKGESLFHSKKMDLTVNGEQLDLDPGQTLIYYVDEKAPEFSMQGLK

T2: EpCAM wild-type (expressed in HEK293T cells, FIG. 8D-8G) (human, UniProt P16422 24-314)
T2 sequence: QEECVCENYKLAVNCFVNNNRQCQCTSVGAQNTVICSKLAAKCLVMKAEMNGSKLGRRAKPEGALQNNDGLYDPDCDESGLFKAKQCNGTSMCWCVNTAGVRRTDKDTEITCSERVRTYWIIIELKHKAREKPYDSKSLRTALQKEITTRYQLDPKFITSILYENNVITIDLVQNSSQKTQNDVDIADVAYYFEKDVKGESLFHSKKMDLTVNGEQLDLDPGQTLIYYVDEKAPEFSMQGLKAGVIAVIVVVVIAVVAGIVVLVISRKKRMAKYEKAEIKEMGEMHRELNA

B1: EpCAMΔEGFI+II-V5 (other)
chain: QEESKLAAKSERVRTYWIIIELKHKAREKPYDSKSLRTALQKEITTRYQLDPKFITSILYENNVITIDLVQNSSQKTQNDVDIADVAYYFEKDVKGESLFHSKKMDLTVNGEQLDLDPGQTLIYYVDEKAPEFSMQGLKAGVIAVIVVVVIAVVAGIVVLVISRKKRMAKYEKAEIKEMGEMHRELNA
notes: also called both domain-deleted mutants; not shown: V5 tag
B2: endogenous EpCAM (HCT116 and HT29 cells) (other)
chain: T2 sequence
notes: Endogenous protein of human colon cancer cell lines, immunoprecipitated from lysates; also called epithelial cell adhesion molecule
B3: EpCAM-V5 (full length, expressed in HEK293T cells) (other)
chain: T2 sequence
notes: also called exogenous EpCAM; not shown: V5 tag
B4: EpEXΔEGFI+II-His (ligand)
chain: QEESKLAAKSERVRTYWIIIELKHKAREKPYDSKSLRTALQKEITTRYQLDPKFITSILYENNVITIDLVQNSSQKTQNDVDIADVAYYFEKDVKGESLFHSKKMDLTVNGEQLDLDPGQTLIYYVDEKAPEFSMQGLK
notes: EpEX lacking aa 27-59 and 66-135; also called EGF like-domain deletion mutant EpEX-His; soluble EpEX mutant protein; not shown: His tag
B5: EpEXΔEGFI+II-Fc (Fc fusion)
chain: B4 chain
notes: EpEX lacking aa 27-59 and 66-135, coated on ELISA plates at 1 µg/ml; also called EpEXΔEGFI+II mutant protein; EGF like-domain deletion mutant-Fc; not shown: Fc
B6: EpEX-Fc (Fc fusion)
chain: T1 sequence (P16422 24-265 limits assumed)
notes: also called recombinant EpEX-Fc; not shown: Fc
B7: EpEX-His (extracellular domain of EpCAM, His-tagged) (ligand)
chain: T1 sequence (P16422 24-265 limits assumed)
notes: It was made in Expi293 cells and purified on Ni-NTA; also called soluble EpEX; secreted EpEX; not shown: His tag
B8: F(ab′)2 of EpAb2-6 (antibody, V domains shown)
VH: VKLQESGPELKKPGETVKISCKASGYTFTDYSMHWVKQAPGKGLKWMGWINTETGEPTYADDFKGRFAFSLETSASTAYLQINNLKNEDTATYFCARTAVYWGQGTTVTVSS
VL: DIQMTQSPSSLSASLGERVSLTCRASQEISVSLSWLQQEPDGTIKRLIYATSTLDSGVPKRFSGSRSGSDYSLTISSLESEDFVDYYCLQYASYPWTFGGGTKLEIKR
notes: F(ab′)2 fragment of mouse EpAb2-6; also called divalent antibody fragments F(ab′)2 of EpAb2-6
B9: F(ab′)2 of EpAb2-6: divalent antibody fragments F(ab′)2 of EpAb2-6 (antibody, V domains shown)
VH: B8 VH
VL: DIQMTQSPSSLSASLGERVSLTCRASQEISVSLSWLQQEPDGTIKRLIYATSTLDSGVPKRFSGSRSGSDYSLTISSLESEDFVDYYCLQYASYPWTFGGGTKLEIKRADAAPTVS
B10: EpAb2-6 (mouse monoclonal IgG) (antibody, V domains shown)
VH: B8 VH
VL: B8 VL
notes: Mouse hybridoma IgG; also called mouse EpAb2-6; mEpAb2-6

The target in test [1] is T3, HGFRECD-c-Myc (extracellular domain of HGFR with c-Myc tag, expressed in HEK293T cells) (UniProt P08581 25-932).
T3 construct: extracellular domain; also called HGFRECD-c-Myc-tag; not shown: c-Myc tag
T3 sequence (P08581 25-932): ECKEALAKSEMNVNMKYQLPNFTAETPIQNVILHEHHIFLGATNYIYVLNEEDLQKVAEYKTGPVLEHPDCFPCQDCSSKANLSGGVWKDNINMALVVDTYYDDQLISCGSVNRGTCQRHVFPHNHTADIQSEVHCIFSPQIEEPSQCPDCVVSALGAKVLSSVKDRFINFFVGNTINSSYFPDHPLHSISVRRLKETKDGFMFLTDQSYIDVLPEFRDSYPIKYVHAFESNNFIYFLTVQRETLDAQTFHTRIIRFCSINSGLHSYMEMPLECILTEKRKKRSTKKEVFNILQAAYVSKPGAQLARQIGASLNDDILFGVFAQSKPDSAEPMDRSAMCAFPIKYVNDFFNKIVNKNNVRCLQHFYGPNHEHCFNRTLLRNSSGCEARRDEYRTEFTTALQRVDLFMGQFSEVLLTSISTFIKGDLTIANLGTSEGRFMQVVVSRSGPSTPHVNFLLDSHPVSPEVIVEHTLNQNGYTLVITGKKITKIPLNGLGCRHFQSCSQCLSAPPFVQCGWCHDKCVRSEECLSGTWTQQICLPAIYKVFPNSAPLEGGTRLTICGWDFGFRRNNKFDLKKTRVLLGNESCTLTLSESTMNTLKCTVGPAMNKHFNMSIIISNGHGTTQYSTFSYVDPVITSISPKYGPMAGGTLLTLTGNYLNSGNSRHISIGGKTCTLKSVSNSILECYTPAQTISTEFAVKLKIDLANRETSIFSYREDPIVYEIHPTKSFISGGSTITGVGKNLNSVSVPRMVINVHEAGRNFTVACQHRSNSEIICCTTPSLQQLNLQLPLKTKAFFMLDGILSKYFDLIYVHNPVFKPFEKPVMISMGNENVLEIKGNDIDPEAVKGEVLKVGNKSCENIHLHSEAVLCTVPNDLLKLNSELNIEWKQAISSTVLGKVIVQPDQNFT
Description: co-IP from transfected HEK293T cells, Western blotting (FIG. 1F). A general note: A western blot detects proteins with antibodies after separation by electrophoresis.

The target in test [2] is T4, endogenous HGFR (HCT116 and HT29 cells) (human, UniProt P08581 25-1390).
T4 construct: whole, on cells; also called c-MET; hepatocyte growth factor receptor
T4 sequence (P08581 25-1390): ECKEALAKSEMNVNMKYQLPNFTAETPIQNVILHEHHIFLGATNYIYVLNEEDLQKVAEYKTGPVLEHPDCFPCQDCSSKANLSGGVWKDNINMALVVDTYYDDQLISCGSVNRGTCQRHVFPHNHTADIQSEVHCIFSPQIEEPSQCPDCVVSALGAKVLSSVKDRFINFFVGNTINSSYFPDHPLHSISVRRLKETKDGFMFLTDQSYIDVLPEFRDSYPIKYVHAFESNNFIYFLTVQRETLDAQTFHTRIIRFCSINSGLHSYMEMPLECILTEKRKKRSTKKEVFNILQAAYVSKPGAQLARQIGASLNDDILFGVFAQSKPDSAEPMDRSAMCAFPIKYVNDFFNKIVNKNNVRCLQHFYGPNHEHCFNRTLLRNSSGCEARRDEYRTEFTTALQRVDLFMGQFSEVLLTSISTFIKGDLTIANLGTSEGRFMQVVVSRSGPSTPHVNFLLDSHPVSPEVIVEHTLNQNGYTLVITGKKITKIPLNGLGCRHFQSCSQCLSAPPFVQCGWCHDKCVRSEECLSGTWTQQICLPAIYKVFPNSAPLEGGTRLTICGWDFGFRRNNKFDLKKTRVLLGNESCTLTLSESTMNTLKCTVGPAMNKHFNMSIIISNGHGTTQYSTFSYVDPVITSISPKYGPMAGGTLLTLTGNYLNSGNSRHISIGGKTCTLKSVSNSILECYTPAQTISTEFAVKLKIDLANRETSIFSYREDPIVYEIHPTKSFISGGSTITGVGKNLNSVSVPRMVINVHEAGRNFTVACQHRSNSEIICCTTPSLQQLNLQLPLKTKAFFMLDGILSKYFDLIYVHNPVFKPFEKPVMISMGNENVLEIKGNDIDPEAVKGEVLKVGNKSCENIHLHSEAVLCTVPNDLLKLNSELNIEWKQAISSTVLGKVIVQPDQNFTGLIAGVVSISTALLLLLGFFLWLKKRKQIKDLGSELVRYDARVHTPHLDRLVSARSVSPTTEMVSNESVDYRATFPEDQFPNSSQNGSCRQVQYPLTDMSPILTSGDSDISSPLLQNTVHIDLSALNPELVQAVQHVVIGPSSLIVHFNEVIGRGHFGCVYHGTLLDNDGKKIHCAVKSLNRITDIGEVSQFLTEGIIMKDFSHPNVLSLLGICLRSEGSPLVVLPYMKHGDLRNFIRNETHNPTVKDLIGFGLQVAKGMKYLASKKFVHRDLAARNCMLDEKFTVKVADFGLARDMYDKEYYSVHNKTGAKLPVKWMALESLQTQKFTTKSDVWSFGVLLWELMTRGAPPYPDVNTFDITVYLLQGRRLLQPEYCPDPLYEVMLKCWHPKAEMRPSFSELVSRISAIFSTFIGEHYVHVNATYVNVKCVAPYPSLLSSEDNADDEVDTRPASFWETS
Nature of the test: co-IP of endogenous proteins after DTSSP cross-linking, HCT116 and HT29 cells (FIG. 1A).

The target in test [3] is T3, HGFRECD-c-Myc (extracellular domain of …). Nature of the test: co-IP from HEK293T cells overexpressing EpCAM-V5 and HGFRECD-c-Myc (FIG. 1B).
Test [4] shares this target. Description: co-IP with anti-c-Myc from transfected HEK293T cells, Western blotting (FIG. 1G).
In test [5] the target is T5, HGFR-His recombinant protein (human, UniProt P08581 25-932).
T5 construct: extracellular domain; also called HGFRECD-His recombinant protein; not shown: His tag
T5 sequence (P08581 25-932): as the sequence (P08581 25-932) above
Nature of the test: ELISA, HGFR-His added to plates coated with mutant-Fc (1 µg/ml) (FIG. 1H). A general note: ELISA stands for enzyme-linked immunosorbent assay.

The target in test [6] is T5, HGFR-His recombinant protein. Description: ELISA, HGFR-His (2 µg/ml) on coated EpEX-Fc proteins (1 µg/ml) (FIG. 1H).
Test [7] concerns the target T3, HGFRECD-c-Myc (extracellular domain of …). Description: co-IP from transfected HEK293T cells (restated).
The target of test [8] is T6, HGFR-Fc protein (human, UniProt P08581 25-932).
T6 construct: not shown: Fc
T6 sequence (P08581 25-932): as above
Nature of the test: ELISA, EpEX-His (2 µg/ml) on coated HGFR-Fc (1 µg/ml) (FIG. 6F).

The target of test [9] is B7. Nature of the test: ELISA on coated EpEX-His (1 µg/ml) (FIG. 7A).
Test [10] concerns the target T1, EpEX-His. Description: ELISA binding to coated EpEX-His. The note with it: EpEX-His 1 μg/ml coated; ELISA OD450; FIG. 7A. As to the method: FIGS. 7A to 7G. EpAb2-6 binds EpEX and induces apoptosis by F(ab′)2 and inhibits regulated intramembrane proteolysis (RIP) activation and HGFR signaling. (FIG. 7A) Binding affinity of IgG EpAb2-6 (mouse) and F(ab′)2 to EpEX-His (1 μg/ml) coated overnight was checked using ELISA (OD450). (FIG. 7B) HCT116 cells were treated with 100 μg/ml control IgG, Fc, or F(ab′)2 of EpAb2-6 for 24 h. The apoptotic and necrotic cells were quantified by fluorescein annexin V-FITC/PI double labeling. (FIG. 7C) HCT116 and HT29 cells were treated with 10 μg/ml control IgG, MT201, humanized EpAb2-6 (hEpAb2-6) or mouse hybridoma EbAb2-6 (mEpAb2-6) for 24 h. The apoptotic and necrotic cells were quantified by fluorescein annexin V-FITC/PI double labeling. (FIG. 7D) HCT116 cells were treated with 10 μg/ml control IgG, MT201, hEpAb2-6 or mEpAb2-6 for 16 h, followed by treatment with EpEX-His (50 nM) for 15 min. Levels of phosphorylated HGFR, AKT, and ERK, and (FIG. 7E) RIP proteins ADAM17 and presenilin 2 were examined by Western blotting. Anti-EpCAM antibody and crizotinib coordinately induces apoptosis in colon cancer cells. (FIG. 7F) HCT116 and HT29 cells were treated with 10 μg/ml NMIgG or EpAb2-6 and 4 μM HGFR inhibitor crizotinib for 24 h. The apoptotic and necrotic cells were quantified by fluorescein annexin V-FITC/PI double labeling. […] Cell invasion was assessed by a Transwell assay with matrigel after 24 h.

Test [11] has as its system HCT116 cells. Nature of the test: Apoptosis assay, annexin V-FITC/PI double labeling, HCT116. The class given is cell-based, human. Conditions: 100 μg/ml 24 h, FIG. 7B. As to the method:
FIGS. 7A to 7G. EpAb2-6 binds EpEX and induces apoptosis by F(ab′)2 and inhibits regulated intramembrane proteolysis (RIP) activation and HGFR signaling. (FIG. 7A) Binding affinity of IgG EpAb2-6 (mouse) and F(ab′)2 to EpEX-His (1 μg/ml) coated overnight was checked using ELISA (OD450). (FIG. 7B) HCT116 cells were treated with 100 μg/ml control IgG, Fc, or F(ab′)2 of EpAb2-6 for 24 h. The apoptotic and necrotic cells were quantified by fluorescein annexin V-FITC/PI double labeling. (FIG. 7C) HCT116 and HT29 cells were treated with 10 μg/ml control IgG, MT201, humanized EpAb2-6 (hEpAb2-6) or mouse hybridoma EbAb2-6 (mEpAb2-6) for 24 h. The apoptotic and necrotic cells were quantified by fluorescein annexin V-FITC/PI double labeling. (FIG. 7D) HCT116 cells were treated with 10 μg/ml control IgG, MT201, hEpAb2-6 or mEpAb2-6 for 16 h, followed by treatment with EpEX-His (50 nM) for 15 min. Levels of phosphorylated HGFR, AKT, and ERK, and (FIG. 7E) RIP proteins ADAM17 and presenilin 2 were examined by Western blotting. Anti-EpCAM antibody and crizotinib coordinately induces apoptosis in colon cancer cells. (FIG. 7F) HCT116 and HT29 cells were treated with 10 μg/ml NMIgG or EpAb2-6 and 4 μM HGFR inhibitor crizotinib for 24 h. The apoptotic and necrotic cells were quantified by fluorescein annexin V-FITC/PI double labeling. (FIG. 7G) HCT116 and HT29 cells were treated with 10 μg/ml NMIgG or EpAb2-6 and 10 μM HGFR inhibitor crizotinib. Cell invasion was assessed by a Transwell assay with matrigel after 24 h.
Cells were seeded and treated with 10 μg/ml mAb or inhibitor for 6 h; an unrelated mouse myeloma immunoglobulin used at appropriate dilution served as the IgG2a (Invitrogen #02-6200) isotype control. Apoptotic cells were detected using Annexin V-FITC and PI, and were analyzed using a flow cytometer (BD Immmunocytometry Systems). Early apoptosis was measured with the Annexin V-FITC Apoptosis Detection kit II (BD Pharmingen). Late apoptotic nuclei were detected with propidium iodide (PI) staining.

In test [12] the target is B7. Description: ELISA on coated EpEX-His (1 µg/ml) (title of the legend, FIG. 7A).
Test [13] deals with T2, EpCAM wild-type (expressed in HEK293T …). Nature of the test: immunofluorescence, flow cytometry and cellular ELISA on transfected HEK293T cells (FIG. 8E-8G). For orientation: Flow cytometry measures light scatter and fluorescence of single cells or particles in a stream.
The target of test [14] is B3. Description: Western blotting, flow cytometry and immunofluorescence on transfected HEK293T cells (title of the legend, FIG. 8A-8C).

As to B1, the binding result in test [1] is given as “no binding”.
Turning to B2, in test [2], the binding result is on record as “binds”.
For the molecule B3, the binding result in test [3] is “binds”.
On to B4, for which the binding result in test [4] was “no binding”.
Regarding B5, the binding result in test [5] is listed as “no binding (tested: 2 µg/ml)”.
Regarding B6, the binding result in test [6] is “binds”.
As for B7, the binding result in [7] and in [8] was “binds” each time.
With B8, the binding result in [9] is on record as “binds”.
In the case of B9, the “binding to EpEX” value in test [10] is “bind to EpEX”. Also, the apoptosis result in test [11] is “induce apoptosis in colon cancer cells”.
Turning to B10, the binding result in test [12], in test [13] and in test [14] was “binds” throughout.

For the origin of these results see US20250269018A1, “COMBINED CANCER THERAPY WITH AN EPITHELIAL CELL ADHESION MOLECULE (EPCAM) INHIBITOR AND A HEPATOCYTE GROWTH FACTOR RECEPTOR (HGFR) INHIBITOR” (ACADEMIA SINICA, priority 2021, published 2025).
